Broadly, the kcat is the number of substrate molecules converted per active site and unit of time at saturation. One may read the kcat/Km as the second-order rate constant that governs catalysis at low substrate concentration. Broadly, the stoichiometry N is the number of molecules, sites or subunits per partner or assembly.

Data set [1] addresses T1, MilA (Streptomyces rimofaciens, UniProt B4Y380, A176S).
T1 construct: full-length, C-terminal 6xHis tag (LEHHHHHH) kept, pET28a, expressed in E. coli BL21(DE3); homodimer, active site from both subunits
As to the kind of experiment: HPLC/LC-MS of CMP and dCMP competition reaction. The class given is biochemical. Particulars: 1 mM CMP and dCMP together, 2 mM tetrahydrofolate, 15 mM paraformaldehyde, pH 7.5, 37 °C.

For data set [2], the target named is T2, MilA (Streptomyces rimofaciens, UniProt B4Y380, K133R/A176S).
T2 construct: full-length, C-terminal 6xHis tag (LEHHHHHH) kept, pET28a, expressed in E. coli BL21(DE3); homodimer, active site from both subunits
T2 sequence (B4Y380 entry or part of it K133R/A176S): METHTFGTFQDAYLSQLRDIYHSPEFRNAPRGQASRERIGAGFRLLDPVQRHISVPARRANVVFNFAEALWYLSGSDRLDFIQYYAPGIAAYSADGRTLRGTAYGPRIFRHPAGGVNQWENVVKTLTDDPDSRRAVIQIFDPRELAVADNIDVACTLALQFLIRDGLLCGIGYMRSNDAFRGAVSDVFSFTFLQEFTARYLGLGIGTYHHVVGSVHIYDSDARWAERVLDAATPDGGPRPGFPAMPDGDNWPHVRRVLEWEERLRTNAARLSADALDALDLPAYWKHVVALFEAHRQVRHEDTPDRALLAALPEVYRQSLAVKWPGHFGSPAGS
As to the kind of experiment: HPLC/LC-MS of CMP and dCMP competition reaction. In kind it is biochemical. Particulars: 1 mM CMP and dCMP together, 2 mM tetrahydrofolate, 15 mM paraformaldehyde, pH 7.5, 37 °C.

Data set [3] deals with T3, MilA (Streptomyces rimofaciens, UniProt B4Y380).
T3 construct: full-length, C-terminal 6xHis tag (LEHHHHHH) kept, pET28a, expressed in E. coli BL21(DE3); homodimer, active site from both subunits
T3 sequence (B4Y380 1-334): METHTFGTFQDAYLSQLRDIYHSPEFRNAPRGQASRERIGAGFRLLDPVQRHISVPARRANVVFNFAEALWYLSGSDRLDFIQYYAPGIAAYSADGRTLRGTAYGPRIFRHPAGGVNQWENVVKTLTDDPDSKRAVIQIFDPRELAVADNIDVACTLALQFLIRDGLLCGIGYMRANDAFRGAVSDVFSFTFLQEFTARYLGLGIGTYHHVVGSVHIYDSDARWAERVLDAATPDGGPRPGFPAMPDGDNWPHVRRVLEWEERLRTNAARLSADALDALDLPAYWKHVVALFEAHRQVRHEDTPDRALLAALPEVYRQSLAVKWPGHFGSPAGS
As to the kind of experiment: X-ray crystal structure, […] Å. The class given is binding. Particulars: crystals grown with hmCMP, pH 6.5, 14 °C; active site.

Substrate in data set [4]: Nc1ccn([C@@H]2O[C@H](COP(=O)(O)O)[C@@H](O)[C@H]2O)c(=O)n1
As to the kind of experiment: HPLC of hmCMP formation, Michaelis-Menten fit. In kind it is biochemical, Streptomyces rimofaciens. The conditions noted are these: CH2THF co-substrate saturating (from 2 mM tetrahydrofolate), 50 mM Tris-HCl pH 7.5, 37 °C. The source says:
HPLC of hmCMP formation, Michaelis-Menten fit on MilA

Substrate in data set [5]: Nc1ccn([C@H]2C[C@H](O)[C@@H](COP(=O)(O)O)O2)c(=O)n1
In words: HPLC of hmdCMP formation, Michaelis-Menten fit. The class given is biochemical, Streptomyces rimofaciens. The conditions noted are these: CH2THF co-substrate saturating (from 2 mM tetrahydrofolate), 50 mM Tris-HCl pH 7.5, 37 °C. An excerpt:
HPLC of […] formation, Michaelis-Menten fit on MilA

Data set [6] deals with the molecule itself. As to the kind of experiment: crystal structure; hanging-drop vapor diffusion at 14 °C; apo MilA (PEG 3350, lithium sulfate, Tris-HCl pH 8.5) and complexes with CMP, dCMP or hmCMP (sodium cacodylate pH 6.5, sodium acetate); space group P3(2)21, two molecules in the asymmetric unit related by a non-crystallographic twofold rotation.
Setting [7] is: crystal structure of complex at 1.65 Å.
The mark [8] stands for this setting: crystal structure of complex at 2.10 Å.

T1 sequence (B4Y380 entry or part of it A176S): as the sequence (B4Y380 entry or part of it K133R/A176S) above, with R133K counted along it

As to `Nc1ccn([C@@H]2O[C@H](COP(=O)(O)O)[C@@H](O)[C@H]2O)c(=O)n1` [CMP], the “HPLC/LC-MS of CMP and dCMP competition reaction” value at MilA [1] was “MilA-A176S could still catalyze the hydroxymethylation reaction of CMP”.
Regarding `Nc1ccn([C@H]2C[C@H](O)[C@@H](COP(=O)(O)O)O2)c(=O)n1` [dCMP], the “HPLC/LC-MS of CMP and dCMP competition reaction” value on MilA [1] was “significantly enhanced its catalytic efficiency toward dCMP”; at MilA [2], “double mutant MilA A176S/K133R, but its efficiency to dCMP is slightly affected”.
As to `Nc1nc(=O)n([C@@H]2O[C@H](COP(=O)(O)O)[C@@H](O)[C@H]2O)cc1CO` [hmCMP], the “X-ray crystal structure, 1.80 Å” value at MilA [3] is on record as “MilA‒hmCMP complexes have been deposited in the Protein Data Bank”.

B1: MilA, CMP hydroxymethylase from Streptomyces rimofaciens ZJU5119 (wild type, C-terminally His-tagged) (enzyme, UniProt B4Y380 1-334, looked up)
chain: METHTFGTFQDAYLSQLRDIYHSPEFRNAPRGQASRERIGAGFRLLDPVQRHISVPARRANVVFNFAEALWYLSGSDRLDFIQYYAPGIAAYSADGRTLRGTAYGPRIFRHPAGGVNQWENVVKTLTDDPDSKRAVIQIFDPRELAVADNIDVACTLALQFLIRDGLLCGIGYMRANDAFRGAVSDVFSFTFLQEFTARYLGLGIGTYHHVVGSVHIYDSDARWAERVLDAATPDGGPRPGFPAMPDGDNWPHVRRVLEWEERLRTNAARLSADALDALDLPAYWKHVVALFEAHRQVRHEDTPDRALLAALPEVYRQSLAVKWPGHFGSPAGS
notes: MilA, CMP hydroxymethylase of the mildiomycin biosynthetic gene cluster, Streptomyces rimofaciens ZJU5119; full-length, cloned into pET28a; They are disordered in the crystal; also called WT MilA; MilA-WT; source: E. coli BL21(DE3), purified (Ni-NTA, Superdex 200 gel filtration); not shown: His6, C-terminal, kept
Take B1: the Km is 0.0719 (0.0076) mM in data set [4] and 0.245 (0.0589) mM in data set [5]. Further, the figures for the kcat in data set [4] (setting [7]) and in data set [5] (setting [8]) were 0.047 s⁻¹ and 0.032 s⁻¹, respectively. In addition, the kcat/Km in data set [4] (setting [7]) was 653 M⁻¹ s⁻¹; in data set [5] (setting [8]) it was 131 M⁻¹ s⁻¹. In data set [6], the “stoichiometry N” value was 2.

The values are drawn from paper PMC5175136, “Structural basis of the substrate preference towards CMP for a thymidylate synthase MilA involved in mildiomycin biosynthesis” (Scientific Reports, 2016).
